Results as given in patent US11155602B2, “Polypeptides targeting HIV fusion” (priority 2015, dated 2021).
Numbering of substitutions follows the chain as printed.

B1: 321 (protein)
chain: MGHHHHHHGGSVSDVPRDLEVVAATPTSLLISWEYKVHPYRYYRITYGETGGNSPVQEFTVPSVLSSAXLSGLKPGVDYTITVYAVTYGDDSAPISINYRTEID
modifications: not fully specified
B2: 115 (protein)
chain: MGVSDVPRDLEVVAATPTSLLISWEYKVNNYRYYRITYGETGGNSPVQEFTVPSVLSTATISGLKPGVDYTITVYAVTYGVHSSPISINYRTEIDKPSQHHHHHH
modifications: Adnectin
B3: 134 (protein)
chain: MGHHHHHHGGSVSDVPRDLEVVAATPTSLLISWDAPAVTVEQYYIAYYDEKEPSSYQYFRVPGSKSTATISGLKPGVEYAIFVNAVTRSGVLPEFSLPISINYRTEGS
modifications: Adnectin
B4: 283 (protein)
chain: MGHHHHHHGGSVSDVPRDLEVVAATPTSLLISWEYKVHPYRYYRITYGETGGNSPVQEFTVPSVLSTATISGLKPGVDYTITVYAVTDGDDSAPISINYRTEID
modifications: Adnectin
B5: 319 (protein)
chain: B4 chain with H38S, P39H, Y40G, D88Y
modifications: Adnectin
B6: 329 (protein)
chain: B4 chain with D88Y, D91V
modifications: Adnectin
B7: 303 (protein)
chain: B4 chain with T60K, D88Y
modifications: Adnectin
B8: 284 (protein)
chain: B4 chain with D88S
modifications: Adnectin
B9: 305 (protein)
chain: B4 chain with H38D, D88Y
modifications: Adnectin
B10: 292 (protein)
chain: B4 chain with S71H, D88Y
modifications: Adnectin
B11: 310 (protein)
chain: B4 chain with S71N, D88Y
modifications: Adnectin
B12: 313 (protein)
chain: B4 chain with H38A, P39H, Y40G, D88Y
modifications: Adnectin
B13: 131 (protein)
chain: B4 chain with D88Y, D91L
modifications: Adnectin
B14: 317 (protein)
chain: B4 chain with H38N, P39A, D88Y
modifications: Adnectin
B15: 294 (protein)
chain: B4 chain with T67S, D88Y
modifications: Adnectin
B16: 299 (protein)
chain: B4 chain with E34K, D88Y
modifications: Adnectin
B17: 288 (protein)
chain: B4 chain with P26T, H38D, P39Y, Y40H, D88Y
modifications: Adnectin
B18: 327 (protein)
chain: B4 chain with H38T, P39Y, Y40E, D88Y
modifications: Adnectin
B19: 297 (protein)
chain: B4 chain with H38D, Y40W, D88Y
modifications: Adnectin
B20: 298 (protein)
chain: B4 chain with H38D, P39Y, Y40Q, D88Y
modifications: Adnectin
B21: 320 (protein)
chain: B4 chain with H38T, P39T, Y40W, D88Y
modifications: Adnectin
B22: 304 (protein)
chain: B4 chain with H38A, P39H, Y40D, D88Y
modifications: Adnectin
B23: 309 (protein)
chain: B4 chain with D88H
modifications: Adnectin
B24: 286 (protein)
chain: B4 chain with H38A, P39A, Y40W, D88Y
modifications: Adnectin
B25: 318 (protein)
chain: B4 chain with H38N, P39G, D88Y
modifications: Adnectin
B26: 135 (protein)
chain: B4 chain with E34K, K36N, H38N, P39A, D88Y, D90V, D91H, A93S
modifications: Adnectin
B27: 133 (protein)
chain: B4 chain with P39Y, Y40D, D88Y, D90V, A93D
modifications: Adnectin
B28: 322 (protein)
chain: B4 chain with D88Y, D90T
modifications: Adnectin
B29: 285 (protein)
chain: B4 chain with T67S, I70L, S71R, D88Y
modifications: Adnectin
B30: 324 (protein)
chain: B4 chain with D88Y, A93N
modifications: Adnectin
B31: 291 (protein)
chain: B4 chain with D88G
modifications: Adnectin
B32: 316 (protein)
chain: B4 chain with K36A, D88Y
modifications: Adnectin
B33: 308 (protein)
chain: B4 chain with H38N, P39A, Y40W, D88Y
modifications: Adnectin
B34: 293 (protein)
chain: B4 chain with I70L, S71R, D88Y
modifications: Adnectin
B35: 311 (protein)
chain: B4 chain with T69E, D88Y
modifications: Adnectin
B36: 295 (protein)
chain: B4 chain with H38A, P39A, D88Y
modifications: Adnectin
B37: 289 (protein)
chain: B4 chain with K36G, D88Y
modifications: Adnectin
B38: 312 (protein)
chain: B4 chain with T60L, D88Y
modifications: Adnectin
B39: 330 (protein)
chain: B4 chain with D88Y, A93P
modifications: Adnectin
B40: 314 (protein)
chain: B4 chain with H38A, P39Y, Y40K, D88Y
modifications: Adnectin
B41: 306 (protein)
chain: B4 chain with H38D, P39Y, Y40R, D88Y
modifications: Adnectin
B42: 326 (protein)
chain: B4 chain with H38S, P39H, Y40R, D88Y
modifications: Adnectin
B43: 325 (protein)
chain: B4 chain with H38N, P39H, Y40D, D88Y
modifications: Adnectin
B44: 307 (protein)
chain: B4 chain with S28G, D88Y
modifications: Adnectin
B45: 296 (protein)
chain: B4 chain with H38A, P39T, D88Y
modifications: Adnectin
B46: 323 (protein)
chain: B4 chain with D88Y, D91Q
modifications: Adnectin
B47: 302 (protein)
chain: B4 chain with T67S, S71N, D88Y
modifications: Adnectin
B48: 287 (protein)
chain: B4 chain with H38A, P39T, Y40W, D88Y
modifications: Adnectin
B49: 315 (protein)
chain: B4 chain with H38D, P39R, Y40W, D88Y
modifications: Adnectin
B50: 132 (protein)
chain: MGHHHHHHGGSVSDVPRDLEVVAATPTSLLISWDAPAVTVEEYYIGYYVEFEPSSYQWFTVPGSKSTATISGLKPGVEYSIYVNAVTGMGMQPEMSLPISINYRTEGS
modifications: Adnectin
B51: 301 (protein)
chain: MGHHHHHHGGSVSDVPRDLEVVAATPTSLLISWEYKVHPYRYYRITYGETGGNSPVQEFTVPSVLSTATISGLKPGVDYTITVYAVTHGDDFAPISINYRTEMLI
modifications: Adnectin

test system: NL-Rluc virus; test: Combinectin potency assay: antiviral EC50, NL-Rluc virus in MT-2 cells, luciferase readout; assay type: cell-based, HIV-1; details: Anti-N17 Adnectin, Table 3
Method in brief: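 MT-2 cells infected with replication-competent NL-Rluc HIV (nef replaced by Renilla luciferase) at MOI 0.01 for 1 h, then added to threefold-diluted peptides (11 concentrations, triplicate). After 4–5 days, luciferase measured by Dual Luciferase; EC50 relative to no-peptide wells.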

First: B1
Second: B2
The EC50 of the first is 2.4-fold lower: 55 nM for the first, 130 nM for the second. The first is the more potent here.

First: B3
Second: B4
The EC50 of the first is lower: 5 nM for the first, over 1000 nM for the second.

First: B5
Second: B6
The EC50 of the first is higher: over 1000 nM for the first, 102 nM for the second.

Going from B7 to B8, the EC50 rises from 109 nM to over 1000 nM. The first is the more potent here.

First: B9
Second: B10
The EC50 of the first is 1.6-fold higher: 83 nM for the first, 52 nM for the second.

Compared with B11, B12 is higher in EC50: 62 nM for the first, over 1000 nM for the second. The first is the more potent here.

Compared with B13, B14 is higher in EC50: 5 nM for the first, over 1000 nM for the second. The first is the more potent here.

First: B15
Second: B16
The EC50 of the first is lower: 101 nM for the first, over 1000 nM for the second. The first is the more potent here.

B17 and B18 cannot be ordered by EC50: over 1000 nM for the first, over 1000 nM for the second.

Compared with B19, B20 is higher in EC50: 30 nM for the first, over 1000 nM for the second. The first is the more potent here.

B21 and B22 cannot be ordered by EC50: over 1000 nM for the first, over 1000 nM for the second.

B23 and B24 cannot be ordered by EC50: over 1000 nM for the first, over 1000 nM for the second.

B25 and B26 cannot be ordered by EC50: over 1000 nM for the first, over 1000 nM for the second.

Compared with B27, B28 is 2.3-fold higher in EC50: 42 nM for the first, 96 nM for the second.

B29 and B30 are within 1.5-fold of each other in EC50: 397 nM for the first, 487 nM for the second.

Going from B31 to B32, the EC50 falls from over 1000 nM to 331 nM. The second is the more potent here.

B33 and B34 cannot be ordered by EC50: over 1000 nM for the first, over 1000 nM for the second.

Compared with B35, B36 is higher in EC50: 42 nM for the first, over 1000 nM for the second. The first is the more potent here.

Compared with B37, B38 is lower in EC50: over 1000 nM for the first, 37 nM for the second.

Going from B39 to B40, the EC50 rises from 99 nM to over 1000 nM.

B41 and B42 cannot be ordered by EC50: over 1000 nM for the first, over 1000 nM for the second.

Going from B43 to B44, the EC50 falls from over 1000 nM to 205 nM.

First: B45
Second: B46
The EC50 of the first is higher: over 1000 nM for the first, 126 nM for the second.

Compared with B47, B48 is higher in EC50: 4 nM for the first, over 1000 nM for the second. The first is the more potent here.

Going from B49 to B50, the EC50 falls from over 1000 nM to 5 nM. The second is the more potent here.

For B51, the EC50 was over 1000 nM.
